Laboratory results from the nanobody polyreactivity screen of Harvey et al. (2022).

Test: yeast display, Sf9 membrane polyspecificity reagent, FACS + sequencing; frameworks hold sequencing errors
In short: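 Nanobodies from a synthetic yeast display library (Saccharomyces cerevisiae BJ5465), induced 36–48 hours with galactose, were stained 1 hour at 4 °C with 10% biotinylated, detergent-solubilized Sf9 membrane reagent, enriched on streptavidin microbeads, then FACS-sorted. Anti-HA (expression) and streptavidin (reagent binding) fluorescence set low and high (top ~1%) gates. Polyreactivity labels come from the gate of origin. Genes were colony-PCR amplified, MiSeq 2 × 250 sequenced and filtered by CDR length.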
For “QVQLVESGGGLVQAGGSLRLSCAASGFIFVRYAMGWYRQAPGKERELVASITRSGGSTYYADSVKGRFTISRDNAKNTVYLQMNSLKPEDTAVYYCAASYYRSRGSTYGYWGQGTQVTVSS”, the “polyreactivity (PSR sort gate)” value was “high polyreactivity”. With “QVQLVESGGGLVQAGGSLRLSCAASGFIFVRYTMGWYRQAPGKERELVAAISRSSDSTYYADSVKGRFSISRDNAKNTVYLQMNSLKPEVTAVYYCAAFSGFSPFRFYYWGQGTQVTVSS” the “polyreactivity (PSR sort gate)” value was “high polyreactivity”. With “QVQLVESGGGLVQAGGSLRLSCAASGFIFVSYALGWYRQAPGKETELVAAISSSGGTTNYADSVKGRFTISRDNAKNTVYLQMNSLKPEDTAVYYCAAYVYQTPHSLHIYDYWGQGTQVTVSS” the “polyreactivity (PSR sort gate)” value was “low polyreactivity”. For “QVQLVESGGGLVQAGGSLRLSCAASGFIFVSYAMGWYRQAPGKERELVAAIDRIGGITYYADSVKGRFSISRDNAKNTVYLQMNSLKPEDTAVYYCAAAARYATVRVGREYYWGQGTQVTVSS”, the “polyreactivity (PSR sort gate)” value was “low polyreactivity”. In the case of “QVQLVESGGGLVQAGGSLRLSCAASGFIFVTNVMGWYRQAPGKERELVAAISRRGTNTYYADSVKGRFTISRDNAKNTVYLQMNSLKPEDTAVYYCNKLVFHTGGFRYDYWGQGTQVTVSS”, the “polyreactivity (PSR sort gate)” value is reported as “high polyreactivity”. With “QVQLVESGGGLVQAGGSLRLSCAASGFIFVTYAMGWYRQAPGKERELVAAITNSGGTTYYADSVKGRFTISRDNAKNTVYLQMNSLKPEDTAVYYCNKPYGAETAHREFDYWGQGTQVTVSS” the “polyreactivity (PSR sort gate)” value was “low polyreactivity”. In the case of “QVQLVESGGGLVQAGGSLRLSCAASGFIFVYGNVMGWYRQAPGKERDLVASITSDGGSTNYADSVKGRFTISRDNAKNTVYLQMNSLKPEDTAVYYCNADVPRGFGGEYDYWGQGTQVTVSS”, the “polyreactivity (PSR sort gate)” value is reported as “low polyreactivity”. In the case of “QVQLVESGGGLVQAGGSLRLSCAASGFIFVYNAMGWYRQAPGKEREFVAGISRSGGNTYYADSVKGRFTISRDNAKNTVYLQMNSLKPEDTAVYYCAVVNRRFGFPNVALRSNYGDYWGQGTQVTVSS”, the “polyreactivity (PSR sort gate)” value is reported as “low polyreactivity”. In the case of “QVQLVESGGGLVQAGGSLRLSCAASGFIFVYNDMGWYRPAPGKERELVASISNGDNTNYADSVKGRFTISRDNAKNTVYLQMNSLKQEDTAVYYCAARGTIYVLGVPARPVPDGDYWGQGTQVTVSS”, the “polyreactivity (PSR sort gate)” value is reported as “low polyreactivity”. With “QVQLVESGGGLVQAGGSLRLSCAASGFIFVYNVMGWYRQAPGKERELVAAITSGGSTNYADSVKGRFTISRDNAKNTVFLKMNSLKPEDTAVYYCNADIYPDWIYLLYGYWGQGTQVTVSS” the “polyreactivity (PSR sort gate)” value was “low polyreactivity”. For “QVQLVESGGGLVQAGGSLRLSCAASGFIFWENGMGWYRQAPGKERELVAAISSGVGRTYYADSVKGRFTISRDNAKNTVYLQMNSLKPEDTAVYYCNRARYYREFDYWGQGTQVTVSS”, the “polyreactivity (PSR sort gate)” value was “high polyreactivity”. For “QVQLVESGGGLVQAGGSLRLSCAASGFIFWFNAIGWSRQEPGKEREWVATISWSDTSTYYADSVKGRFTISRDNAKNTVYLQMNSLKPEDTAVYYCATDGRETWLPEYYWGQGTQVTVSS”, the “polyreactivity (PSR sort gate)” value was “low polyreactivity”. With “QVQLVESGGGLVQAGGSLRLSCAASGFIFWGNAMGWYRQAPGKERELVAAINYSGGRTYYADSVKGRFTISRDNAKNTVYLQMNSLKAEATAVNYCAAKYRYHVSGYDYWGQATQVTVSS” the “polyreactivity (PSR sort gate)” value was “high polyreactivity”. With “QVQLVESGGGLVQAGGSLRLSCAASGFIFWLYAMGWYRQAPGKERELVAAISSSGGNTYYADSVKGRFTISRDNAKNTVYLQMNSLKPEDTAVYYCAATYSYGRTYSGYYWGQGTQVTVSS” the “polyreactivity (PSR sort gate)” value was “low polyreactivity”. In the case of “QVQLVESGGGLVQAGGSLRLSCAASGFIFWQYTMGWYRPAPGKERELVAAINGGSATYYADSVKGRFTISRDNAKNTVYLQMNSLKPEDTAVYYCAADRYLYHYRYEYYYWGQGTQVTVSS”, the “polyreactivity (PSR sort gate)” value is reported as “high polyreactivity”. In the case of “QVQLVESGGGLVQAGGSLRLSCAASGFIFWRYTMGWYRQAPGKERELVAVISWSGDNTYADSVKGRFTISRDNAKNTVYLQMNSLKPEDTAVYYCGVYRYDYWGQGTQVTVSS”, the “polyreactivity (PSR sort gate)” value is reported as “low polyreactivity”. With “QVQLVESGGGLVQAGGSLRLSCAASGFIFWSNAMGWYRQAPGKERELVAAISWSGGSTYYADSVKGRFTISRDNAKNTVYLQMNSLKQEDTAVYYCAAEFWGWDWDLEYWGQGTQVTVSS” the “polyreactivity (PSR sort gate)” value was “high polyreactivity”. With “QVQLVESGGGLVQAGGSLRLSCAASGFIFWVNAMGWYRKAPGKERELVAAISSSYGSTYYADYVKGRFSISRDNAKNTVYLQMNRLKPEDTAVCYSAARWLGHFYPFFLQGLSGFDYWGQGTHVTVSS” the “polyreactivity (PSR sort gate)” value was “low polyreactivity”. For “QVQLVESGGGLVQAGGSLRLSCAASGFIFWYYAMGWYRQAPGKERELVATITRGGSTYYADSVKGRFTISRDNAKNTFYLQMNSLKPEDTAVYYCNAVRPKIYDYWGQGTQVTVSS”, the “polyreactivity (PSR sort gate)” value was “high polyreactivity”. With “QVQLVESGGGLVQAGGSLRLSCAASGFIFWYYTMGGYRQAPGKERELVAAISRSGASTYYADSVKGRFTISRDNAKNTVYLQMNSLKPEDTAVYYCAKDYQTYSGSSDFDYWGQGTQVTVSS” the “polyreactivity (PSR sort gate)” value was “high polyreactivity”. In the case of “QVQLVESGGGLVQAGGSLRLSCAASGFIFYAYAMGWYRQAPGKERELVAAIDSGGNTYADSVKGRFTISRDNAKNTVYLQMNSLKPEDTAVYYCAVDGGEFSSYGYWGQGTQVTVSS”, the “polyreactivity (PSR sort gate)” value is reported as “low polyreactivity”. For “QVQLVESGGGLVQAGGSLRLSCAASGFIFYAYDMGWYRQAPGKERELVAAISRVGSTYYADSVKGRFTISRDNAKNTVYLQMNSLKPEDTAVYYCATKFGTTRGFGYWGQGTQVTVSS”, the “polyreactivity (PSR sort gate)” value was “high polyreactivity”. With “QVQLVESGGGLVQAGGSLRLSCAASGFIFYDYAMGWNRQAPGKERELVAAISSGGSTNYADSVKGRFTISRDNAKNTVYLQMNSLKPEDTAVYFCAADDRSYASWKRDYDYWGQGTQVTVSS” the “polyreactivity (PSR sort gate)” value was “low polyreactivity”. With “QVQLVESGGGLVQAGGSLRLSCAASGFIFYDYAMGWYRQAPGKERELVAAISRGGSSTYYADSVKGRFTISRDNAKNTVYLQMNSLKPEDTAVYYCAAYRWYEYDYWGQGTQVTVSS” the “polyreactivity (PSR sort gate)” value was “high polyreactivity”. With “QVQLVESGGGLVQAGGSLRLSCAASGFIFYDYVMGWYRQAPGKERELVAAISASGGSTYYADSVKGRFTISRDNAKNTVYLQMNCLKPEDTAVYYCNARPKYDSGHYYWGQGTQVTVSS” the “polyreactivity (PSR sort gate)” value was “high polyreactivity”. In the case of “QVQLVESGGGLVQAGGSLRLSCAASGFIFYEYDMGWYRQAPGKERELVAAISVSGGSTYYADSVKGRFTISRDNAKNTVYLQRNSLKPEDTAVYYCAVFLPDYGRYDYWGQGTQVTVSS”, the “polyreactivity (PSR sort gate)” value is reported as “low polyreactivity”. For “QVQLVESGGGLVQAGGSLRLSCAASGFIFYFNAMGWYRQAPGKERELVAAISASGGRTYFADSVKGRFTISRDNAKNTVYLLMNSLKPEDTAVYYCAARGGSYYFRRYNYWGQGTQVNVSS”, the “polyreactivity (PSR sort gate)” value was “high polyreactivity”. With “QVQLVESGGGLVQAGGSLRLSCAASGFIFYGYMGWYRQAPGKERELVAAISYTGGSTYYADSVKGRFTISRDNAKNTVYLQMNSLKPEDTAVYYCARDWRTKWFGYWGQGTQVTVSS” the “polyreactivity (PSR sort gate)” value was “low polyreactivity”. For “QVQLVESGGGLVQAGGSLRLSCAASGFIFYGYVMGWYRQAPGKERELVAAITYNGGRTYYADSVKGRFTISRDNAKNTVYLQMNSLKPEDTAVYYCAALGYDGDYDYWGQGTQVTVSS”, the “polyreactivity (PSR sort gate)” value was “low polyreactivity”. With “QVQLVESGGGLVQAGGSLRLSCAASGFIFYIYAMGWYRQAPGKERELVAAISWNGGSTYYADSVKGRFTISRDNAKNTVYLLMNSLKPEDTAVYYCATVARYRYGTGRFDYWGQGTQVTVSS” the “polyreactivity (PSR sort gate)” value was “high polyreactivity”. For “QVQLVESGGGLVQAGGSLRLSCAASGFIFYIYAMGWYRQAPGKEWELVAAISGGGGSTYYAASVKGRFTISRDNAKNTVYLQINSLKPEDTAVSYCAARYDVAWYSKRYSWGQGTQVTVSS”, the “polyreactivity (PSR sort gate)” value was “high polyreactivity”. In the case of “QVQLVESGGGLVQAGGSLRLSCAASGFIFYKNAMGLYRQAPGKERELVAAISRRGSSTYYADSVKGRFTISRDNAKNTVYLQMNSLKPEDTAVYYCAARFTRRDYWGQGTQVTVSS”, the “polyreactivity (PSR sort gate)” value is reported as “high polyreactivity”. In the case of “QVQLVESGGGLVQAGGSLRLSCAASGFIFYKYAMGWYRQAPGKERELVAAITRSGGSTYYADSVKGRFTISRDNAKNTVYLQMNSLKPEDTAVYYCAKRSYRARDAVPGGFDSWGQGTQVTVSS”, the “polyreactivity (PSR sort gate)” value is reported as “high polyreactivity”. For “QVQLVESGGGLVQAGGSLRLSCAASGFIFYLYAMGWYRQAPGKERELVAAIDSGDDTDYADSVKGRFTISRDNAKNTVYLQMNSLKPEDTAVYYCAAGAYWPWGEDYWGQGTQVTVSS”, the “polyreactivity (PSR sort gate)” value was “high polyreactivity”. With “QVQLVESGGGLVQAGGSLRLSCAASGFIFYLYAMGWYRQAPGKERELVAAISWDGGSTYYADSVKGRFTISRDNAKNTVYLQMNSLKPEDTAVYYCAADREFWWEVVYTYEYYYWGQGTQVTVSS” the “polyreactivity (PSR sort gate)” value was “low polyreactivity”. In the case of “QVQLVESGGGLVQAGGSLRLSCAASGFIFYNYALGWYRQAPGKERELVAAISASGGRSYYADSVKGRFTISRDNAKNTVYLQMNRLKPEDTAVYYCNARVNYKGYDYWGQGTQVTVSS”, the “polyreactivity (PSR sort gate)” value is reported as “high polyreactivity”. With “QVQLVESGGGLVQAGGSLRLSCAASGFIFYNYAMGWYRQAPGKERELVAAITGGGSTNYADSVKGRLTISRDNPKNTVYLQMNSLKPEDTAVYYCAAEEGPPWSRYDYWGQGTQVTVSS” the “polyreactivity (PSR sort gate)” value was “low polyreactivity”. In the case of “QVQLVESGGGLVQAGGSLRLSCAASGFIFYPYAMGWYRQAPGKERELVAVIRWSGGRTYYADSVKGRFTISRDNAKNTVYLQMNSLKPEDTSVYYCNARKITRYAVGPRKLGDYWGQGTQVTVTS”, the “polyreactivity (PSR sort gate)” value is reported as “high polyreactivity”. With “QVQLVESGGGLVQAGGSLRLSCAASGFIFYRNALGWYRQAPGKERELVAVIRWSGTSTSYADSVKGRFTISRDNAKNTVYLQMNSLKPEDTAVYYCNAAWYDLYGDSDGDDYWGQGTQVTVSS” the “polyreactivity (PSR sort gate)” value was “low polyreactivity”. In the case of “QVQLVESGGGLVQAGGSLRLSCAASGFIFYRNAMGWYRQAPGKERELVAAISKSGGITYYADSVKGRFTISRDNAKNTVYLQMNSLKPEDTAVYYCAKASQNGYDYWGQGTQVTVSS”, the “polyreactivity (PSR sort gate)” value is reported as “high polyreactivity”. For “QVQLVESGGGLVQAGGSLRLSCAASGFIFYRYAIGWYIQAPGKEREFVASISGSGGRTYYADSVKGRFTISRDNAKNTVYLQMNTLKPEDTAGYYCAADRYSAYLYWDEYWGQGTQVTVSS”, the “polyreactivity (PSR sort gate)” value was “high polyreactivity”.
